Measured values reported in the DeepSol protein solubility set.

Test: soluble on expression in E. coli; label from the status in PepcDB or PDB records

| Sequence | soluble on expression in E. coli |
| --- | --- |
| MSTLRLLISDSYDPWFNLAVEECIFRQMPATQRVLFLWRNADTVVIGRAQNPWKECNTRRMEEDNVRLARRSSGGGAVFHDLGNTCFTFMAGKPEYDKTISTSIVLNALNALGVSAEASGRNDLVVKTVEGDRKVSGSAYRETKDRGFHHGTLLLNADLSRLANYLNPDKKKLAAKGITSVRSRVTNLTELLPGITHEQVCEAITEAFFAHYGERVEAEIISPNKTPDLPNFAETFARQSSWEWNFGQAPAFSHLLDERFTWGGVELHFDVEKGHITRAQVFTDSLNPAPLEALAGRLQGCLYRADMLQQECEALLVDFPEQEKELRELSAWMAGAVR | soluble |
| MGSDKIHHHHHHMMGKAALMDAIAGTNRGLLATEAQKQAILAAIANLEDFNPTPRPVEAGNLLDGNWRLLYTTSKALLNLDRLPFCKLGQIYQCIRVETTSVYNIAEIYGLPYLEGLVSVAAKFEPVSGRRVQVKFERSIIGLQRLIEYNSPVTFIQQIEAGKKFAGIDFAIKSDKQQGWLDITYIDNDLRIGRGNEGSVFILSKT | not soluble |
| GSHMGPVEILPFLYLGSAYHASKCEFLANLHITALLNVSRRTSEACMTHLHYKWIPVEDSHTADISSHFQEAIDFIDCVREKGGKVLVHSEAGISRSPTICMAYLMKTKQFRLKEAFDYIKQRRSMVSPNFGFMGQLLQYESEILPSTPNPQPPSCQGEAAGSSLIGHLQTLSPDMQGAYCTFPASVLAPVPTHSTVSELSRSPVATATSC | soluble |
| MINHIEEPSSMDAHAVSFRVEKDDLSGAVSWVARNLPTKPTQPVLRAVVITADDEGLEFAGFDYEVSTKVHINADVRQPGRIAVAGKLMSDIIGTLPNKTIEVFVEGTQVQVVCGSSRFELPLIPLDEYPPLPQLPAVTGAIDPNLFTDAVLQVAAAAGRDETLPMLTGIHMEIDGENVTLTATDRFRLALRRFTWSPANPEAKAKLLIPAKNLSDNARSLDSGSTEPVEIAVGTGENIGAEGLFGIHIDNRQTTTRMLDADFPNVSPLLPKVHNAMASVEISALSDAIRRVALVAERNAQIRMQFTRDEVILSAGGSDAGHAEESVPCAFTGDQEFLIAFNSAYLRDGLSVIRTSRVVFGFTEPSRPAIMIPEPETLPEASADGTYPTPDTEFTYLLMPVRLPG | soluble |
| MLLWVFEYNSVSRASWGDRVPVDKNSCACLEGGYAACLCGVAKSVKGRPVLRGVSLSVKFGEIHVLAGLNGAGKTTSLRVLVGLLSRDSGEARVLGVDPWGGGFERVKGEVGYLPEDASVYERLTGMENILFYARLYSGWRDVEELVENAVFYSGLSREDLARRAGGYSKGMKRRLLLGITLMSKPRLVVLDEPTSGVDPIASNRIKKILRGLSREGRAILVTTHDLALAEEIADRVTIIHGGSTVASGPPYRLVEEYCGETLEDAFVNIVTGGGC | soluble |
| NQVEKSLISSYEQSLNQRIDNLSYYIEQEYKSDNDSTVIKDDVSRILNDFTKSDEVREISFVDKSYEVVGSSKPYGEEVAGKQTTDLIFKRIFSTKQSYLRKYYDPKSKIRVLISAKPVMTENQEVVGAIYVVASMEDVFNQMKTINT | not soluble |
| MKEAYAQELIDYYNQSTNDVLKRTASISENEKPRVLFLVYDQRKNSYWTPGGEFYQNNLITMAGGKTVSSDLPTGKAQINVEQAASWNPDVIITSAHTMEYPSTKVKEDVLTDEGWKEINAVKSGNVYAMPFDGESWDTLGSKYVLGLYWTAKTLHPDMYLEHHHHHH | soluble |
| MGSDKIHHHHHHMTDARDLTLPTGYIDLLGELKNRVRAARTRALRTVNTQLIELYWSIGQDVSAQQEHQGWGSGVIKRLADDLRAEFPEMKGFSARNVQYMTTFARAWNGGAIAQQPVAQLPWGHVTVLLDKLADQEKRDWYASEAVEYGWSRNVLMNMIMNKSLERTGSAPSNFAQHLVAQDSELAQQAAKDPYSFEFLGLSGEVAERDLEQALMDRITETLREMGPGFAFVGRQVHFDVGGDDFYIDLLFFHVEQLRYYVVELKTGKFQPEYAGKLNSYIALVDDRLRRETHADTVGILICGSKNDHTVRYSLGRATSPMAVASYTYDALPADVRDELPDADRLTAALDWTED | not soluble |
| MDNRSASLHSDIDTVLNNYDYDFAEVEIAVLGNGHINNTYKLTTPEVEFVLQQINHDVFPKTAELSSNAQKINLHLQRQKNIGNYPLSIPQQILSKTGETYSKVGTNYWRLMEFISNSYTLEEVESPEQAALVANAFAEFSCTLSDFPVEELAVIIEDFHDISFRMRQLNEAVENDLQDRLSSCQTLVNFCLDQQDFINHVIDISKKLPLHVTHNDTKINNLLFTEGDTPCAVIDLDTCMPGLLMHDFGDMVRTCCSNLAEDDTNIDAMIIKLDIFSALIQSYQNAFGTKMSALEKDSLIVGTKSVPFSLGTRFLTDYLNGDSYFQVSREKHNLDRAFNQIQLFILLCEAEPELIKLAMQALEHHHHHH | not soluble |
| MGSDKIHHHHHHMQIKLSTDGCTDFMFILENTVNHGIIMQPYHSYFVGPMDICSALITLSGTINTFGVRFRPCGLSRFMKISLSELTNIRLSVNDLNTIFSDSFAERLFEEQGIQCKINLIERYLKKHLYKSNHTMDTQISYAVNQINAHEGKISISHLMDEVNLCQRHFERKFKLHTGFTPQKYNSIVKFKNAIKILRNESFDNLLSVAVKAGYYDASHLSREVKKLSGSTPNFFLSLPPDNETTIIYTK | not soluble |
| MKIQLDINGTEIQKGVWVGSGAIIEPGAILNPPCVIGDNCRIESGAVIDSLSVIGNNNVIERDSSVKRSVIWDGNYIEYGSKIRGAILCSKTNLKRYVHIFENAIVGDNCLINERVVIKPNIKIWPQKTVEPFAIVDRNIIWGSKLEHHHHHH | not soluble |
| GAAAGVAAWLPFARAAAIGWMPVANCPMPLAPADKNKRQDELIVLNVSGRRFQTWRTTLERYPDTLLGSTEKEFFFNEDTKEYFFDRDPEVFRCVLNFYRTGKLHYPRYECISAYDDELAFYGILPEIIGDCCYEEYKDRKREN | soluble |
| SEEDNRAPQLWRKTLTAPAPFADETNCQCQAPHEKLTIAQARLGTPADRPVRVYADGIFDLFHSGHARALMQAKTLFPNSYLLVGVCSDDLTHKFKGFTVMNEAERYEALRHCRYVDEVIRDAPWTLTPEFLEKHKIDFVAHDDIPYSSAGSDDVYKHIKEAGMFVPTQRTEGISTSDIITRIVRDYDVYARRNLQRGYTAKELNVSFINEKRYRFQNQVDKMKEKVKNVEERSKEFVNRVEEKSHDLIQKWEEKSREFIGNFLELFGPDGAWKQMFQERSSRMLQALSPKQSPVSSPTRSRSPSRSPSPTFSWLPLKTSPPSSPKAASASISSMSEGDEDEK | soluble |
| MTTVSKPDESSFDVRTLSMKTCGSRLCVGFCYCSGVVKFRKSESVGTVDIPFPSLGACPSLTLSMSPNMNFSSRMALAPTSPMKRSKSVPNILSGEYPNSVCVVANSIDENGDAGVDVTDCASTKPLVLGKDNYQDNYWDSQETNHRNADMKTPKKKVGKISKFVNICVSELKKFKNPNSGVTSIDGVERLKKEIAPLPSSPLKLTSTSTIEFQSTVTSSSPIMRSRETTSTIQRSKIISSTTKVMSDMLMDKEGKDSEISENSINCSTNLAVNKMGDVPSLSQFEDADGLQKKLTEPVELPAKSQEVYQYDVSASPAKEDLKWSTLKKIDLIVPSFRSKKRGLVAHLKSSPISKISYDGSPSKQVGVLDGEITDDGRIDSGPAKAIIPTSTENIIMPKELNISDIGEKAEVSRGLRKRHLEDSSTPSSRGPSTPAKLITDEDATNKKKRVLGKNMVDNKASSPNKEHILPIDQLNNSSAMGISSENTAPMELKATGNDPVSDGGGYKFLVTAETGRKFDEFRAKRQRLRESWMENKSPTSNKNVQTTAVTSGFQSNEQAPENLPATMECLNKEAATTPMNDNRALLTEVGPEAALAEPKLGKPLLPVENVLQYSKSPSKTAVTNKPTKTVLKANFNAPIGKINSDISFFTPKKVFGKSEYQYGPSMGKLIQMMGTGTPKKVLPEFGSSSKTALFSPRKEEHCAGAPRGSWKIAKMRVRTKLSNFYPSSRSKNSQQIRGKWLGQNIVQFSGHHSMIAQSANDKHGANLMEISAQPSTSTTAQNI | not soluble |
| MLFHRKIKVPDCVFKAEKRVLHVSDTPVSFYRTFDEILNLIKPDIIIHTGDLADDIKLERKPWLKKEYENALIKFKNIIRGRIVYLVPGNEDDKEIIREILGRDVILVNPGTIIEIYGRTFALGHKPEDVKGKEAEFKLYGHDPKSLFPFNGIHAIHIILFPEWKVVKIRYPSWVNYDRGYRIFRGLLEHHHHHH | not soluble |
| MSEENITNVQENASDYNEDQIQVLEGLEAVRKRPGMYIGSTSQRGLHHLVWEIVDNAIDEALAGFCTEIEITIEADNSITVRDNGRGIPTGINEKIGRPTVEVIFTVLHAGGKFGGGGYKVSGGLHGVGASVVNALSTSLEVYVHREGQKYYQRFERGDVVMDMEEQGETDYRGTIVHFTPDPQIFTETTEFDFDTLRTRTRELAFLNRGLTISIEDKREEHKVRKDFHYEGGIRSYVEHLNKAKDVIHEPPIYLEGERDDIMVEISMQYNTGFSSNIISFANNIHTYEGGTHESGFKTALTRVINDYARRNKLFKDSDDNLSGEDVREGLTAIISIKHPDPQFEGQTKTKLGNSEARSITDKLFSEALNKFMMENPDVAKKIVEKGVVASRARLAAKRAREVARKSSGLEISSLPGKLADCSSRNPEISELYIVEGDSAGGSAKQGRDRLFQAILPIRGKILNVEKARLDRILANEEIRTIFTAMGTGFGGDFDVSKSRYHKLIIMTDADVDGAHIRTLLLTLFYRYMRPLLDAGYIYIAQPPLYQIKHGKQIEYVYSDGQLEDYLASLDGDTKYSIQRYKGLGEMNPEQLWDTTMNPEHRTLLQVNIKDAIDADETFEMLMGDRVEPRRKFIEDNAQYVKNLDV | not soluble |
| MSLSLSSIIKNIPKAELHLHIEGSLTPELMWRLAEKHSVSLPYASVEEIEAAYNFEDLQSFLDLYYAGAGVLRDEDDFFALMWEYLTRCHEDNIVHTEIMFDPQTHTERDIGFDIFMPGFLKAMEKAKDEYGISSYLIMSFLRHLPEDAAFDTLSAAEPYYEHITAVGLDSSELGHPPSKFERVFKKAKALGFKIVAHAGEEGPASYIWEAIELLDVDRIDHGVRCQEDEALMDLLKERQIPLTVCPLSNLKLCVINDMKDHNIVQLLDAGLLVTVNSDDPTYFGGFLNDNFEALHQSLGIDEKTVRTLVANSFKASFLPQEQKNQLVEKVLSAEGHHHHHH | soluble |
| MMLSSNSFSLNLSNEDYIWPLEEDQEETTDSSGPMMLSPPLPEGACFNFEDRNTVYVHSRRPEDTPKSFELYSIPEDLALDSPFPSCEQTTFFTTKPDKSFLLDIKNSSPLNIGRMQNSRS | soluble |
| MLDANKLQQAVDQAYTQFHSLNGGQNADYIPFLANVPGQLAAVAIVTCDGNVYSAGDSDYRFALESISKVCTLALALEDVGPQAVQDKIGADPTGLPFNSVIALELHGGKPLSPLVNAGAIATTSLINAENVEQRWQRILHIQQQLAGEQVALSDEVNQSEQTTNFHNRAIAWLLYSAGYLYCDAMEACDVYTRQCSTLLNTIELATLGATLAAGGVNPLTHKRVLQADNVPYILAEMMMEGLYGRSGDWAYRVGLPGKSGVGGGILAVVPGVMGIAAFSPPLDEDGNSVRGQKMVASVAKQLGYNVFKGLEHHHHHH | not soluble |
| MSRDLLGLEGKIVMVTGAGRGFGRAIAHGYGRNGATVIAVDPDVELATGVASEVEALGATAIPIRGDMSVVLDVTSTFEKVEELFGLLDGIVHVTTAESKTPFVELLEGEWYDLMSQDVKSSLYVLQQGLRHLAGGGFVTIVLPPAARIEPHTVSVRKAVEGLIEGATRTFPGVRVNGVVPSRDPVGDPYDLPLVRAALGLGSMVSEGIRGVVLEVQLPEPPLEFEPYAALRELP | soluble |
| MGHHHHHHSHMATSATSPHAPGFPAEGRCGYYVEKKKRFCRMVVAAGKRFCGEHAGAAEEEDARKRILCPLDPKHTVYEDQLAKHLKKCNSREKPKPDFYIQDINAGLRDETEIPEQLVPISSLSEEQLEKLIKKLRKASEGLNSTLKDHIMSHPALHDALNDPKNGDSATKHLKQQVCLGYSNY | not soluble |
